Our source for the IC50, inhibition of the IL2 (12.5 ng/mL)-driven luciferase signal (RLUs) in βγ-receptor reporter cells and IC50, inhibition of the IL15 (6 ng/mL)-driven luciferase signal (RLUs) in βγ-receptor reporter cells values is patent US20250257143A1.

The target in the assay is beta gamma receptor (CD122/CD132) for IL2 and IL15 on a reporter cell line (UniProt P14784).
Sequence of beta gamma receptor (CD122/CD132) for IL2 and IL15 on a reporter cell line (P14784 27-551 limits assumed, chain 1 of 2): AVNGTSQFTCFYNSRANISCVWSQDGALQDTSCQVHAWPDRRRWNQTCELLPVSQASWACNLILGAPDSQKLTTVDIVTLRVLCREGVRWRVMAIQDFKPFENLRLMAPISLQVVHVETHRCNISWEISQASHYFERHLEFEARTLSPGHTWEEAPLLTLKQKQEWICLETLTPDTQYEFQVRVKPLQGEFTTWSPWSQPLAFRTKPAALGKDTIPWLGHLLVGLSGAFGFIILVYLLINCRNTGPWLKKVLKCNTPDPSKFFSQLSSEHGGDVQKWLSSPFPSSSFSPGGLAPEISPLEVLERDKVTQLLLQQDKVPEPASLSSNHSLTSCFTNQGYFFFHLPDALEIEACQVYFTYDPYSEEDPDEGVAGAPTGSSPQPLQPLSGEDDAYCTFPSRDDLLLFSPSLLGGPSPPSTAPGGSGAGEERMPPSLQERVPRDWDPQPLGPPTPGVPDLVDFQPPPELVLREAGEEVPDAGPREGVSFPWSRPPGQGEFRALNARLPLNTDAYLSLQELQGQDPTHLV
Sequence of beta gamma receptor (CD122/CD132) for IL2 and IL15 on a reporter cell line (P31785 23-369 limits assumed, chain 2 of 2, further chain): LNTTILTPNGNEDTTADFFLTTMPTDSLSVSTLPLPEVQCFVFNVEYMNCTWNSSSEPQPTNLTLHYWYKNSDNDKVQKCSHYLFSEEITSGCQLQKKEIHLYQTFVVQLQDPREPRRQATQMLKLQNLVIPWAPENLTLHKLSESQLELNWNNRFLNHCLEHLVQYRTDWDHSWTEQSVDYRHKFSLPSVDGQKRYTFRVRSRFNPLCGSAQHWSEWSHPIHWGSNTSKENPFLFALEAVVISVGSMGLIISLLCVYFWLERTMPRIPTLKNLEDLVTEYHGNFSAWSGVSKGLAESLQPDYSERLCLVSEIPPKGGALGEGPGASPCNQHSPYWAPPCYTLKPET

In turn, “anti-human CD122 antibody Clone TU27 (BioLegend, Catalog #339015)” yielded an IC50, inhibition of the IL2 (12.5 ng/mL)-driven luciferase signal (RLUs) in βγ-receptor reporter cells of 0.0757 µg/mL and an IC50, inhibition of the IL15 (6 ng/mL)-driven luciferase signal (RLUs) in βγ-receptor reporter cells of 0.6 µg/mL.
